From PMC6763431, “Methionine in a protein hydrophobic core drives tight interactions required for assembly of spider silk” (Nature Communications, 2019)

B1: wild-type N-terminal domain of major ampullate spidroin 1 (MaSp1) from Euprosthenops australis [Euprosthenops australis] / itself (parent)
chain: SHTTPWTNPGLAENFMNSFMQGLSSMPGFTASQLDDMSTIAQSMVQSIQSLAAQGRTSPNKLQALNMAFASSMAEIAASEEGGGSLSTKTSSIASAMSNAFLQTTGVVNQPFINEITQLVSMFAQAGMNDVSA

Variants of: B1
Assay: high-resolution SEC
Conditions: with itself; read off a plot

Row | Variant | Kd [nM]
1 | SHTTPWTNPGLAENFLNSFLQGLSSMPGFTASQLDDLSTIAQSLVQSIQSLAAQGRTSPNKLQALNMAFASSLAEIAASEEGGGSLSTKTSSIASAMSNAFLQTTGVVNQPFINEITQLVSMFAQAGMNDVSA | 1000
2 | SHTTPWTNPGLAENFLNSFLQGLSSMPGFTASQLDDMSTIAQSMVQSIQSLAAQGRTSPNKLQALNMAFASSMAEIAASEEGGGSLSTKTSSIASAMSNAFLQTTGVVNQPFINEITQLVSMFAQAGMNDVSA | 160
3 | SHTTPWTNPGLAENFLNSFLQGLSSMPGFTASQLDDLSTIAQSLVQSIQSLAAQGRTSPNKLQALNMAFASSMAEIAASEEGGGSLSTKTSSIASAMSNAFLQTTGVVNQPFINEITQLVSMFAQAGMNDVSA | 660
4 | SHTTPWTNPGLAENFLNSFLQGLSSMPGFTASQLDDLSTIAQSMVQSIQSLAAQGRTSPNKLQALNMAFASSMAEIAASEEGGGSLSTKTSSIASAMSNAFLQTTGVVNQPFINEITQLVSMFAQAGMNDVSA | 750
